Target: R3B2 1-273 (RIIID and first dsRBD) (Mucor lusitanicus)
Assay: SEC-MALS

stoichiometry N: 2
Substance: R3B2 1-273 (RIIID and first dsRBD) (domain or fragment)

Source: paper PMC8136814
